Experiments:
Paxillin = Paxillin (UniProt P49023); conditions: cited from earlier work
[1] = target: human Kindlin-3 F0 (1-105), GST tag removed (human, UniProt Q86UX7 1-105); assay: NMR titration
Chain of human Kindlin-3 F0 (1-105), GST tag removed (Q86UX7 1-105): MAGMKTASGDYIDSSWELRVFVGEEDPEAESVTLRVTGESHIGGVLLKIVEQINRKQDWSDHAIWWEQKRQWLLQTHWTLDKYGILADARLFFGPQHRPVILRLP

Chain of Kindlin-2 (Q96AC1 whole entry): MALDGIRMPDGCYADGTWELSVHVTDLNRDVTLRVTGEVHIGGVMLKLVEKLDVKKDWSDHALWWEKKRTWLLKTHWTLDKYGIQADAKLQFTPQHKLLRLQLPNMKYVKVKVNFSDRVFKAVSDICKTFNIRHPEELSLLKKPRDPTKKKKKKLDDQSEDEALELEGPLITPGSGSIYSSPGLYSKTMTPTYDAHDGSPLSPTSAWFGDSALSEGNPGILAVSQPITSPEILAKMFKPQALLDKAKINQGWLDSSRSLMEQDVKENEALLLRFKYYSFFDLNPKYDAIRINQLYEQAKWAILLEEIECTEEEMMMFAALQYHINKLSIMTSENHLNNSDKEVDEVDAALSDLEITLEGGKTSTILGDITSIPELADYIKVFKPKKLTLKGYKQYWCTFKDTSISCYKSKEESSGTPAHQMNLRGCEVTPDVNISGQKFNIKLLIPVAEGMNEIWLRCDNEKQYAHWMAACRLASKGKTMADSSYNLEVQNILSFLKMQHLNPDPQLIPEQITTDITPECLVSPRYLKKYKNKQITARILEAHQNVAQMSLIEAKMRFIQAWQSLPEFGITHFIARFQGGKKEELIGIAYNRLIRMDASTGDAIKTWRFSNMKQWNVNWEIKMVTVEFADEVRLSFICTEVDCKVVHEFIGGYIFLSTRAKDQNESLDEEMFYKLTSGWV

Row | Kd [1] | Molecule | Kd (Paxillin)
1 |  | Kindlin-2 (from UniProt Q96AC1) | 201 µM
2 | 192 µM | human LPXN LIM4 (324-386), 15N-labeled, GST tag removed (domain or fragment, UniProt O60711 324-386, looked up, also: 15N-labeled) RRGTLCHGCGQPITGRCISAMGYKFHPEHFVCAFCLTQLSKGIFREQNDKTYCQPCFNKLFPL | 
3 | 117 µM | human PXN (paxillin-γ) LIM4 (541-605), 15N-labeled, GST tag removed (domain or fragment, UniProt P49023-3 541-605, looked up, also: 15N-labeled) YHERRGSLCSGCQKPITGRCITAMAKKFHPEHFVCAFCLKQLNKGTFKEQNDKPYCQNCFLKLFC | 

Source: paper PMC8203317 (Journal of immunology (Baltimore, Md. : 1950), 2020)
